Positions count from the first letter of the chain named.

B1: P233FR9P1001-H3-1 vcMMAF conjugate (designed binder)
chain: LPAPKNLVVSRVTEDSARLSWTAPDAAFDSFPIGYWEWDDDGEAIVLTVPGSERSYDLTGLKPGTEYHVYIAGVKGGQWSFPLSAIFTT
modifications: vc-MMAF conjugated through a sortase tag (Gly3-vc-MMAF, sortase A)
B2: P233FR9_H10 vcMMAF conjugate (designed binder)
chain: B1 chain with P32A, H68P
modifications: vc-MMAF conjugated through a sortase tag (Gly3-vc-MMAF, sortase A)
B3: P234CR9_H01 vcMMAF conjugate (designed binder)
chain: LPAPKNLVVSRVTEDSARLSWEWWVIPGDFDSFLIQYQESEKVGEAIVLTVPGSERSYDLTGLKPGTEYTVSIYGVVNSGQWNDTSNPLSAIFTT
modifications: vc-MMAF conjugated through a sortase tag (Gly3-vc-MMAF, sortase A)
B4: P229CR5P819_H11 vcMMAF conjugate (designed binder)
chain: LPAPKNLVVSRVTEDSARLSWDIDEQRDWFDSFLIQYQESEKVGEAIVLTVPGSERSYDLTGLKPGTEYTVSIYGVYHVYRSSNPLSAIFTT
modifications: vc-MMAF conjugated through a sortase tag (Gly3-vc-MMAF, sortase A)
B5: ISOP130R5CP6_A06_cys vcMMAF conjugate (designed binder)
chain: MLPAPKNLVVSRVTEDSARLSWKHYRPGARFDSFLIQYQESEKVGEAIVLTVPGSERSYDLTGLKPGTEYTVSIYGVVTALPSYYSSNPLSAIFTTGGHHHHHHGGC
modifications: vc-MMAF on the C-terminal cysteine (cysteine-maleimide chemistry)
B6: ISOP130R5CP7_G04_cys vcMMAF conjugate (designed binder)
chain: B5 chain with V78A, T79A, A80H, L81A, P82I, S83P, Y84R, S86A
modifications: vc-MMAF on the C-terminal cysteine (cysteine-maleimide chemistry)
B7: Iso124R5AB_D6_cys vcMMAF conjugate (designed binder)
chain: MLPAPKNLVVSRVTEDSARLSWHNHRPQFDSFLIQYQESEKVGEAIVLTVPGSERSYDLTGLKPGTEYTVSIYGVAIAVPWNYQSNPLSAIFTTGGHHHHHHGGC
modifications: vc-MMAF on the C-terminal cysteine (cysteine-maleimide chemistry)
B8: ISOP130R5CP7_G02srt vcMMAF conjugate (designed binder)
chain: MLPAPKNLVVSRVTEDSARLSWKHYRPGARFDSFLIQYQESEKVGEAIILTVPGSERSYDLTGLKPGTEYTVSIYGVVTHALPTAYTSNPLSAIFTTGGHHHHHHGGLPETGGH
modifications: vcMMAF conjugated via the sortase reaction at the C-terminal sortase tag (Gly3-vcMMAF)
B9: ISOP130R5CP6_F02srt vcMMAF conjugate (designed binder)
chain: B8 chain with K23D, H24Q, P27K, G28Y, R30G, I49V, T84Q, A85T, T87Q
modifications: vcMMAF conjugated via the sortase reaction at the C-terminal sortase tag (Gly3-vcMMAF)
B10: ISOP130R5CP7_F11srt vcMMAF conjugate (designed binder)
chain: B8 chain with I49V, V78I, T79W, H80G, T84N, A85S, T87S
modifications: vcMMAF conjugated via the sortase reaction at the C-terminal sortase tag (Gly3-vcMMAF)
B11: ISOP130R5CP6_A02srt vcMMAF conjugate (designed binder)
chain: B8 chain with I49V, T79N, H80N, T84R, A85W, T87I
modifications: vcMMAF conjugated via the sortase reaction at the C-terminal sortase tag (Gly3-vcMMAF)
B12: ISOP130R5CP6_F01srt vcMMAF conjugate (designed binder)
chain: MLPAPKNLVVSRVTEDSARLSWKHYRPGARFDSFLIQYQESEKVGEAIVLTVPGSERSYDLTGLKPGTEYTVSIYGVVTALPSNYISNPLSAIFTTGGHHHHHHGGLPETGGH
modifications: vcMMAF conjugated via the sortase reaction at the C-terminal sortase tag (Gly3-vcMMAF)
B13: ISOP130R5CP6_E08srt vcMMAF conjugate (designed binder)
chain: B12 chain with T79A, S83N, I86A
modifications: vcMMAF conjugated via the sortase reaction at the C-terminal sortase tag (Gly3-vcMMAF)
B14: ISOP130R5CP6_A06srt vcMMAF conjugate (designed binder)
chain: B12 chain with N84Y, I86S
modifications: vcMMAF conjugated via the sortase reaction at the C-terminal sortase tag (Gly3-vcMMAF)
B15: ISOP130R5CP6_A06_G28A vcMMAF conjugate (designed binder)
chain: B12 chain with G28A, N84Y, I86S
modifications: vcMMAF conjugated via the sortase reaction at the C-terminal sortase tag
B16: ISOP130R5CP6_A06_V78A vcMMAF conjugate (designed binder)
chain: B12 chain with V78A, N84Y, I86S
modifications: vcMMAF conjugated via the sortase reaction at the C-terminal sortase tag
B17: ISOP130R5CP6_A06_P27A vcMMAF conjugate (designed binder)
chain: B12 chain with P27A, N84Y, I86S
modifications: vcMMAF conjugated via the sortase reaction at the C-terminal sortase tag
B18: ISOP130R5CP6_A06_Y85A vcMMAF conjugate (designed binder)
chain: B12 chain with N84Y, Y85A, I86S
modifications: vcMMAF conjugated via the sortase reaction at the C-terminal sortase tag
B19: ISOP130R5CP6_A06_R26A vcMMAF conjugate (designed binder)
chain: B12 chain with R26A, N84Y, I86S
modifications: vcMMAF conjugated via the sortase reaction at the C-terminal sortase tag
B20: ISOP130R5CP6_A06_R30A vcMMAF conjugate (designed binder)
chain: B12 chain with R30A, N84Y, I86S
modifications: vcMMAF conjugated via the sortase reaction at the C-terminal sortase tag
B21: ISOP130R5CP6_A06_L81A vcMMAF conjugate (designed binder)
chain: B12 chain with L81A, N84Y, I86S
modifications: vcMMAF conjugated via the sortase reaction at the C-terminal sortase tag
B22: ISOP130R5CP6_A06_H24A vcMMAF conjugate (designed binder)
chain: B12 chain with H24A, N84Y, I86S
modifications: vcMMAF conjugated via the sortase reaction at the C-terminal sortase tag
B23: ISOP130R5CP6_A06_S86A vcMMAF conjugate (designed binder)
chain: B12 chain with N84Y, I86A
modifications: vcMMAF conjugated via the sortase reaction at the C-terminal sortase tag
B24: ISOP130R5CP6_A06_T79A vcMMAF conjugate (designed binder)
chain: B12 chain with T79A, N84Y, I86S
modifications: vcMMAF conjugated via the sortase reaction at the C-terminal sortase tag
B25: ISOP130R5CP6_A06_S83A vcMMAF conjugate (designed binder)
chain: B12 chain with S83A, N84Y, I86S
modifications: vcMMAF conjugated via the sortase reaction at the C-terminal sortase tag
B26: ISOP130R5CP6_A06_Y84A vcMMAF conjugate (designed binder)
chain: B12 chain with N84A, I86S
modifications: vcMMAF conjugated via the sortase reaction at the C-terminal sortase tag
B27: ISOP130R5CP6_A06_Y25A vcMMAF conjugate (designed binder)
chain: B12 chain with Y25A, N84Y, I86S
modifications: vcMMAF conjugated via the sortase reaction at the C-terminal sortase tag
B28: ISOP130R5CP6_A06_P82A vcMMAF conjugate (designed binder)
chain: B12 chain with P82A, N84Y, I86S
modifications: vcMMAF conjugated via the sortase reaction at the C-terminal sortase tag
B29: ISOP130R5CP6_A06_K23A vcMMAF conjugate (designed binder)
chain: B12 chain with K23A, N84Y, I86S
modifications: vcMMAF conjugated via the sortase reaction at the C-terminal sortase tag
B30: EEB9 PEG4-MMAF conjugate (designed binder)
chain: MLPAPKNLVVSRVTEDSARLSWTAPDAAFDSFQIYYSELLSYGEAIVLTVPGSERSYDLTGLCPGTEYTVSINGVKGGTRSWSLSAIFTTAPAPAPAPAPLPAPKNLVVSRVTEDSARLSWTAPDAAFDSFQIYYSELLSYGEAIVLTVPGSERSYDLTGLCPGTEYTVSINGVKGGTRSWSLSAIFTTAPAPAPAPAPTIDEWLLKEAKEKAIEELKKAGITSDYYFDLINKAKTVEGVNALKDEILKA
modifications: Iodoacetyl-PEG4-MMAF on cysteines; 2 MMAF after conjugation
notes: Bivalent P155R8-G3 with ABDcon12
B31: EEB11 PEG4-MMAF conjugate (designed binder)
chain: B30 chain with A93C
modifications: Iodoacetyl-PEG4-MMAF on cysteines; 3 MMAF after conjugation
notes: as for B30
B32: EEB10 PEG4-MMAF conjugate (designed binder)
chain: B30 chain with A93C, A192C
modifications: Iodoacetyl-PEG4-MMAF on cysteines; 4 MMAF after conjugation
notes: as for B30
B33: EEB8 PEG4-MMAF conjugate (designed binder)
chain: B30 chain with C162K
modifications: Iodoacetyl-PEG4-MMAF on cysteine; 1 MMAF after conjugation

Sequence of prostate specific membrane antigen (PSMA) (Q04609 whole entry): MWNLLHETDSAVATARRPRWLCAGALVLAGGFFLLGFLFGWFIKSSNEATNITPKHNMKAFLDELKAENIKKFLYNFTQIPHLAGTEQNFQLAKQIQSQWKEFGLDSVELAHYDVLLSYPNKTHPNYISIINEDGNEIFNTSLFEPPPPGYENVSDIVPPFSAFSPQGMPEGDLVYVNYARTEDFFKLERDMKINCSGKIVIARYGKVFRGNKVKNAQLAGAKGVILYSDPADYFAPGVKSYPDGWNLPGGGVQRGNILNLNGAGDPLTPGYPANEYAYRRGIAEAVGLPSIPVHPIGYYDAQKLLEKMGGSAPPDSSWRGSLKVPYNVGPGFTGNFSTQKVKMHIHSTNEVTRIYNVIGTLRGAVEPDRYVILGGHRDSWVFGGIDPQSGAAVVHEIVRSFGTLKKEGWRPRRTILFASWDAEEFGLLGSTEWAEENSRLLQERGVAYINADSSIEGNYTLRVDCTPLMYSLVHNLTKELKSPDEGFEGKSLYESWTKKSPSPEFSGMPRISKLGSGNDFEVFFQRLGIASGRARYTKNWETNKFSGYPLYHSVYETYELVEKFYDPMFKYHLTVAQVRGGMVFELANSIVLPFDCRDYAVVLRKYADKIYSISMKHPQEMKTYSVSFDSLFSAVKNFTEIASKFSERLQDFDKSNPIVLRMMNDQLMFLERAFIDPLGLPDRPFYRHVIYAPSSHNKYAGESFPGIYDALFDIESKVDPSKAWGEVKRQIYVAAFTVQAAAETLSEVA

The first assay concerns the target prostate specific membrane antigen (PSMA) (UniProt Q04609 1-750, limits assumed). Nature of the assay: cell-based or functional assay.
B1: the “LNCaP cells IC50 (nM), cytotoxicity (CellTiterGlo)” value (from here on “LNCaP cells IC50 (nM), cytotoxicity”) was 0.4 nM; the “MDA-PCA-2B cells IC50 (nM), cytotoxicity (CellTiterGlo)” value (from here on “MDA-PCA-2B cells IC50 (nM)”) is 4.6 nM; the “VCAP cells IC50 (nM), cytotoxicity (CellTiterGlo)” value (shortened to “VCAP cells IC50 (nM), cytotoxicity”) amounted to 15.2 nM.

As for B2, the “LNCaP cells IC50 (nM), cytotoxicity” value worked out at 0.5 nM; the “MDA-PCA-2B cells IC50 (nM)” value was 5.8 nM; the “VCAP cells IC50 (nM), cytotoxicity” value worked out at 25.9 nM.

As for B3, the “LNCaP cells IC50 (nM), cytotoxicity” value turned out to be 22.6 nM; the “MDA-PCA-2B cells IC50 (nM)” value worked out at 151 nM; the “VCAP cells IC50 (nM), cytotoxicity” value was 401 nM.

In the case of B4, the “LNCaP cells IC50 (nM), cytotoxicity” value is 9.3 nM; the “MDA-PCA-2B cells IC50 (nM)” value turned out to be 107 nM; the “VCAP cells IC50 (nM), cytotoxicity” value turned out to be 231 nM.

The target of the next assay is T1, human EpCAM (human, UniProt P16422 24-314).
T1 sequence (looked up): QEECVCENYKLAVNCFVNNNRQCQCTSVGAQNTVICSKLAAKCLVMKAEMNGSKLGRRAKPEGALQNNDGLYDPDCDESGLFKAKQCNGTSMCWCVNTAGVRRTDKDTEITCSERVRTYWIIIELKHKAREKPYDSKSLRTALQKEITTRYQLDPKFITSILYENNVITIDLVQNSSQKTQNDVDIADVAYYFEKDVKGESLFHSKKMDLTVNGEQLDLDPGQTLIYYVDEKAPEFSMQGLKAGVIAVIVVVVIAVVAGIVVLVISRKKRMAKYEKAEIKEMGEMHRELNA
Nature of the assay: cell-based or functional assay.
For the molecule B5, the “Cytotoxicity Assays of CDCs, A431 cells IC50 (nm)” value was 9.9 nm and the “Cytotoxicity Assays of CDCs, HT-29 cells IC50 (nm)” value was 6.7 nm.

As to B6, the “Cytotoxicity Assays of CDCs, A431 cells IC50 (nm)” value is 48.1 nm and the “Cytotoxicity Assays of CDCs, HT-29 cells IC50 (nm)” value came out at 37.7 nm.

For B7, the “Cytotoxicity Assays of CDCs, A431 cells IC50 (nm)” value worked out at 59.2 nm and the “Cytotoxicity Assays of CDCs, HT-29 cells IC50 (nm)” value was 38.3 nm.

The next assay concerns the target T1, human EpCAM. Nature of the assay: cell-based or functional assay. The source holds these as a separate data set.
Regarding B8, the “% viable COLO205 cells, 1 nM” value worked out at 39%.

B9: the “% viable COLO205 cells, 1 nM” value stood at 90%.

As to B10, the “% viable COLO205 cells, 1 nM” value was 81%.

In the case of B11, the “% viable COLO205 cells, 1 nM” value was determined as 66%.

Take B12: the “% viable COLO205 cells, 1 nM” value was found to be 43%.

Regarding B13, the “% viable COLO205 cells, 1 nM” value was found to be 66%.

For the molecule B14, the “% viable COLO205 cells, 1 nM” value was found to be 67%.

A further assay has as its target T1, human EpCAM. Nature of the assay: cell-based or functional assay. This is another data set of the same source.
Take B15: the “IC50 (nM), cytotoxicity on COLO205 cells (CellTiterGlo)” value (from here on “IC50 … on COLO205 cells (CellTiterGlo)”) came to 0.8 nM.

On to B16, for which the “IC50 … on COLO205 cells (CellTiterGlo)” value came out at 4.5 nM.

For the molecule B17, the “IC50 … on COLO205 cells (CellTiterGlo)” value is 42.6 nM.

With B18, the “IC50 … on COLO205 cells (CellTiterGlo)” value came to 564 nM.

With B19, the “IC50 … on COLO205 cells (CellTiterGlo)” value came to 507 nM.

In the case of B20, the “IC50 … on COLO205 cells (CellTiterGlo)” value came to 0.8 nM.

In the case of B21, the “IC50 … on COLO205 cells (CellTiterGlo)” value was determined as 76 nM.

Regarding B22, the “IC50 … on COLO205 cells (CellTiterGlo)” value was 2.6 nM.

Turning to B23, the “IC50 … on COLO205 cells (CellTiterGlo)” value was 1.3 nM.

As for B24, the “IC50 … on COLO205 cells (CellTiterGlo)” value was determined as 0.5 nM.

On to B25, for which the “IC50 … on COLO205 cells (CellTiterGlo)” value worked out at 1.4 nM.

With B26, the “IC50 … on COLO205 cells (CellTiterGlo)” value was found to be 0.4 nM.

As to B27, the “IC50 … on COLO205 cells (CellTiterGlo)” value turned out to be 127 nM.

For B28, the “IC50 … on COLO205 cells (CellTiterGlo)” value turned out to be 326 nM.

Regarding B29, the “IC50 … on COLO205 cells (CellTiterGlo)” value was 1 nM.

With B14, the “IC50 … on COLO205 cells (CellTiterGlo)” value was found to be 1.6 nM.

The target in a further assay is T2, epidermal growth factor receptor (EGFR) (human, UniProt P00533 25-1210).
T2 construct: whole, on cells; The cell assays use human tumour lines; also called hEGFR
Nature of the assay: table column 'Binding antigen'; no assay given.
Turning to B30, the binding result was “binds”.

Regarding B31, the binding result was “binds”.

Regarding B32, the binding result was “binds”.

For B33, the binding result is “binds”.
